Experimental findings from the DeepSol protein solubility set are described below.

A short description of the data set: soluble on expression in E. coli; label from the status in PepcDB or PDB records.
As for “MSQNVYQFIDLQRVDPPKKPLKIRKIEFVEIYEPFSETQAKAQADRCLSCGNPYCEWKCPVHNYIPNWLKLANEGRIMEAADLAHQTNSLPEVCGRVCPQDRLCEGSCTLNDEFGAVTIGNIERYISDKAIAMGWKPDMSHVHPTGKRVAVIGAGPAGLACADVLARNGVQAVVFDRHPEIGGLLTFGIPAFKLEKEVMIKRRKIFSEMGIEFQLNTEVGKDITMEALLKDYDAVFLGVGTYQSMRGGLENEEANGVYDALPFLIANTKQLMGYEATAHEPYINMQGKRVVVLGGGDTAMDCVRSSIRQGATDVVCAYRRDEVNMPGSKREVKNAREEGVEFKFNLQPLSIEVNSNGKVCGVRMVRTQLGAPDAQGRRMAEQIPGSEHVLPADAVVMAFGFRPHSMEWLAAHDVKLDKQGRVIAPESTDNAFQTSNPKIFAGGDIVRGSDLVVTAIAEGRKAADGIMNYLEV”, the “soluble on expression in E. coli” value is reported as “not soluble”. With “MAKLDDWTDIFLDDEGNFRASADGDVQLVTGKAAYLQDVKHELETVLGSYPFDENYGTRLITYLQRENTELARQELIQDVEEVVMRHSFVVPGSVDVRANSWTLREIEFSVSFGVQTSGGIEPAELTVQITVDGVRVVRSE” the entry was “not soluble”. With “MKKIGIIGAGGIARAHATALSTIKNAELVGVYDINQQNAESFVKTFGGKSFENVDELIDASEGLIVASPNFCHKEHALQALGKHKHVLCEKPMAISLEEASIMKDTAERLSVRASMGFNYRYLSYVNILKSLIINNELGNILSIKVHFKKNSALRRKKFTWRDDANSKKTSGSLGDLGIHLIDMVWYLFESDFITESVRAKMNTNVKTKEDKQVLVDDYAEIYGQLRNKVFVNIITSKCSVPEDCGFSIEVVGHKKEFKYHTGNPHVYKLIDGLNVVDCPVPQSLLNDPPNEFYGWADSFRSELINWIASTQNDWVEIPSFSDGFRSQEVLEMFFEKDSNSQPMSVSAVNLEHHHHHH” the entry was “not soluble”. With “MAIIKCDVCAYPFSNKQDPRCSKCHPKITPPSKPKNPYALPMKQQLILGPIVGIVVGLMFAACEGNRPGRATTACMLRARAQAIAAGNPNYTHAKEVSPTRAMLVFRKDGRTRNTNFFCDSLVTDREA” the entry was “not soluble”. Consider “MYSVSLMHGNPKTAIRPAGWHYGRRVYWIEGLPLIGHIAFGVIDRGTNVLQVRPSTLCFHNCIFCSVDAGPSSRRRRSEYTVEWEQLVVWVEKVARVKGGGLEALIDGVGEPLTHPHITRIIKALKGLDAIERVALETHGGSLSKSLARALEKAGLDRINLSVDAADPRLARSLVGVDWYGVDRVLKTAEWIIANTSIDVVLTPVVLPGVNEKEMATLVHWARRVGAGRKSGWPTGVLIQKFEIHKYGRKPSTVKSVWGWRRFYTWLARLEKETGYRLLVDPGEIGFKPRPRVEKPFERGDRVTLVLVGPGWHKGELLAVDRGWRRVVALYGLTEGEALTPGAEVEARIVRDKDNIFIAVPYAAALEHHHHHH”, for which the “soluble on expression in E. coli” value is “soluble”.

Take “MSLGNPAAMLAAYNTSTQVAPQPQLGPRAGEVQLSSEQQAMIDYVLAGKDVIVDATVGSGKTTAIQRLCSIMGADHDVLYLTYSKLLKVDAQQRVRGAKVQNYHGIVYPHLLKAGIKCGISESIREFNKNFKHISRTFPSYDLLVIDEYQDINEDYAELLRNIKSVNPLMQIVMVGDLEQKVRSDTEGHHHHHH”: the “soluble on expression in E. coli” value is “not soluble”.

As to “MPMNTSKQSNTVKQLITSLDNFEPSRLTIKDFQEGKGVGPKMAFLRYNHPSLGEDTSLMLQTPWITLTSGGIPRYNEQYHKNDKDRAYLRLPLEEGTDFFNKITALDEQFSSDEFKKEKFGKLYKKYSMYPCVKITEQEEGDTRDPLPPSLKLRFSLVWNEEDKDACEINTQVFTSKMEDGKRTRTPVPVSSLKDMESLVRLGAKLRLIVRPVSAWMNPKKEYGIKWKIQKMEVEPSTAGNALMKEFYETDAFIDSDDEEDVELPPSATGKKTSTKTTKEDDEDEDDDDDDDDDDVGEKSEDSDEASDEESDEESDEDSEEDSPDIPVRKSKGKGKSKGLDL”, the “soluble on expression in E. coli” value is “not soluble”.

For the sequence “MEREKLELPENGKKLLLHSCCAPCSGEVMEAIVASGIDFSIFFYNPNIHPRKEYDLRKDENIRFAEKHGIPFIDADYDMDDWFKRAKGMEMEPERGIRCTMCFDMRFERTALYAYENGFDVISSSLGISRWKNMDQINDSGVRAAAQYPGITYWTYNWRKKGGSARMLEISKREKFYMQEYCGCAYSLRDTNKWRVEHGREKIRIGEKYYGDVTE”, the “soluble on expression in E. coli” value is given as “not soluble”. With “MGSDKIHHHHHHMKILMLCREPRLYSCQRLKQACQDRNIQLDILDPNRMLIKLAVIDAQMQAQLYYQAGEIYDKCRAEPSLLAEYDAVLPRFGVSSTMMGCRVLDYFAAKKVVILNNSTAFRLARDKWSSLQVLAAQHIPIPTSSFAGALFSTAAHISQHRIPLVIKTCSGSQGVGVMLSESKVHSVSLLQTLQQAKVDNLLQDFVVEARGQDIRAFVIGDRVVAAIERNGLENDFRANIHQGGSASVIQLNTAEQQLAVLAAKTIGLDVAGVDLIRSNKGLLVLEVNACPGLDGIEKASKLDIAGLIIDYLLAMKK” the entry was “not soluble”; with “TPYRAMYQYRPQNEDELELREGDRVDVMQQCDDGWFVGVSRRTQKFGTFPGNYVAPV”, “soluble”.

Regarding “MGSDKIHHHHHHVSATISDLDRLLVAIAAIPTPWKEWPGGYPGRLDLALVDAVMSIRFRYGRERKDGSWTGARGAVLRYQAYSDHVAPAEKMKNLANQDPIALERILNRQKVHSGKTKACAIVEAAQRFLAIDVTEPAHLRPDDAEHRAQYTGVSGLGPVTWEYFTMLLSHDGVKADTWIRRFVERSVQRNVSSDEAGALIKEAANKLDVRETKLDYAVWNYASTTRLETMPKLS”, the “soluble on expression in E. coli” value was “not soluble”. In the case of “MGSDKIHHHHHHMTTFTAKFIDQEWEVPVESGRYHMIVGEFCPYAQRPQIARQLLGLDKHISISFVDDVPSDIGLIFSQPEQVTGAKSLRDIYHLTDPTYQGPYTIPILIDKTDNRIVCKESADLLRLFTTDFSDLHQEDAPVLFSQETASLIDNDIKDINKNFQSLMYKLAFLDKQADYDTYSKEFFTFLDQKEHLLGQRPFLLGDNLSEVDIHFFTPLVRWDIAGRDLLLLNQKALEDYPNIFSWAKTLYNDFNLKTLTNPQSIKNNYYLGKFGRAVRHHTIVPTGPNMAKWEK”, the “soluble on expression in E. coli” value is given as “not soluble”. With “MSLQLLAPGANTALANAHCSWNLESGTSSVFGEYAAVALLAVNEKRQPMGDPALLHQEQSWMEWSGGPQDVGCTLKLDRLPAGSDRVLLMVYVYAAMGPIRDFASLRLKVDANIEHRLDLRDNGEAAIIIGEFYKRNDQWKFRALSEGSAYGLSAFGRKIGLEVDDRHPRRPSGGSGGPAGGPRHESATGTAFVVGPAHVMTCAHVIEDMGVFYINSLEGRYKAEAVVIDRRNDIALLRVQGAPPLSAVTFREGQGCEPGDTVAVLGYPLASISGGGLQVTQGGISGLFGLHNDASLFQFTAPIQPGSSGSPLFDNGGAVIGMVTSTVPDGQNMNFAVKSALLMSFLQACRIDAPHARAERSYTTTEISRTFQSSLWLVEASREGHHHHHH” the entry was “soluble”; with “SQGRKPSSKLISFQRKLANETEIQKLNLSQSDYVVRMERVRYADKVPLVYEVASIPENLIKGFEQSEVTEHFFKTLTENGYEIGKSQQTIYARNASERVASHLEVNAGHAILALTQVSYFTDGKPFEYVHGQYVGDRFE”, “not soluble”; with “GPGSMEEQDQRKPNGGNNGLPVPPSTTETGQGPLQDILGRTPNCQYVKKRLLGQGSFGSAWRVEESATGNVFAAKVMDLNNMSEKDRGFVTNEVKCLSRCCNPHVVRCENAIEREGQLLIVMEYADGGDLYKQIKARVREMKFFREHEVVFIFLQLCLALDHIHSNKMMHRDLKTANILLTTTGLVKLGDFGFSRQYEDSLSNAVGSTFCGTPYYLSPELWHRQPYSKKSEMWALGVVLYEVMALRRPFTGKNMDELITNICHGRCSDLPSSYSASLRDVCNRLLSVDPNTRPTIHELFHEPFIRSNLETLKRSVEKHNRIPADVREAIARCITQSLNTEEPPAHLEEPEPLIGTVKRHTALRGWQKCLLSFDEKQISIRDPSGVDPEEVVPVATLTSVCPIDVMMAGEEFVFAMKNQAGKAFWFMAPSQRAYEQWLTTLQEAAP”, “soluble”.

As to “MAHHHHHHMASLTVPAHVPSAAEDCEQLRSAFKGWGTNEKLIISILAHRTAAQRKLIRQTYAETFGEDLLKELDRELTHDFEKLVLVWTLDPSERDAHLAKEATKRWTKSNFVLVELACTRSPKELVLAREAYHARYKKSLEEDVAYHTTGDHRKLLVPLVSSYRYGGEEVDLRLAKAESKILHEKISDKAYSDDEVIRILATRSKAQLNATLNHYKDEHGEDILKQLEDGDEFVALLRATIKGLVYPEHYFVEVLRDAINRRGTEEDHLTRVIATRAEVDLKIIADEYQKRDSIPLGRAIAKDTRGDYESMLLALLGQEED”, the “soluble on expression in E. coli” value is “soluble”. Take “MVKDLLEERARELGLLFAWAPLDLPQEAEARHRAWLEAGRHGGMAYLEAPERFHPRKRFPWAKSALLLFAPYAYPDPGTPPGGLRVGRVARYAWTRDYHLVLGEALKALEETARGLGLKAKGYVDHGPLPERTLAALSGAGWIGKSGYFLSQAFGVHAFIGVLLTPLEVEAAPLHPSRCGRCARCLSACPTEALLGDGTLDARACVSYLTIEHKGPIPPSLWPGIGDWLFGCDLCGEACPWERFGKVWKALRPEPELAHPDLLDFFRLSGRAFGRKYAGTAFLRAGRARMARNALIVLFNLGLGEALFLEATRDPNPLVRRTALRALHLMGKPLDPFLQDPGLREEALALLGEAPEAVHLLQDGREAPGPEVKEQGA”: the “soluble on expression in E. coli” value is recorded as “not soluble”. “MGKFFFFGFVGLLLSWGALYYRYSDEKNTSARKYRFDPPPALVGNLFINAGLEKAEHILDGKIVGPESMVVDDEAIYVSVNDAKVLKIVDGRVVSKASYSEKSKFFPDCGHFDTEPECGRPLGIRRLVAGKPKFVVCDAYLGVYIVDFTDEQNPISTQILDSKVPIDGLKPRFLNDLDVISEDELIISDSSTRHDRRHFMAAILEHQADGRIFHLKISTKSVKVLADKLYFPNGIQLTEDKKSVIFAECSMARIKKLTIASKKVEMFAANLPGLPDNIRSSGRGTYWVGLTATRSATHPSLLDRLGSLPGIRQFLVDIVPGPYWKPLLGLFKNPHSIIIELDSVGKIVRSLHDVTGKHVGDASQVTEHNGHLYIGSFADHYIAKVKL”: the “soluble on expression in E. coli” value is on record as “not soluble”.
